Laboratory results reported in patent US20230183177A1, “ENANTIOSELECTIVE CHEMO-ENZYMATIC SYNTHESIS OF OPTICALLY ACTIVE AMINO AMIDE COMPOUNDS” (priority 2020, published 2023).

Experiments:
[1] = Biocatalytic conversions with target substrate rac-1 by NHase-CFE or cells, chiral HPLC analysis; assay type: biochemical; conditions: for conversion / e.e. for (S): bioconversion of 100 mM rac-1; for conversion [%]: 300 rpm overnight; for eeP [%]: excess of (S); for Conv. [%]: NHase-CFE, overnight
[2] = Substrate stability experiments: decomposition of rac-1 at different pH (Feigl-Anger paper, HPLC); assay type: physicochemical
Protocol: . In addition, the substrate was dissolved in ethanol as control. 100 μL of the rac-1 solutions were pipetted into a 96-well micro titer plate and covered with Feigl-Anger filter paper. Color development was documented by taking pictures (see FIG. 3).
To investigate the velocity of rac-1 decomposition at different pH, rac-1 was dissolved in different buffer, ranging from pH 5 to pH 10, and extracted immediately, after 2 and after 60 min, respectively, with 1 volume ethyl acetate. Extracts were dried over Na2SO4 and the supernatant evaporated using a vacuum centrifuge. The remaining substances (including rac-1) were dissolved in 100 μL of ethanol.
(R)- and (S)-1 were separated by a Chiralpak AD-H using n-heptane and ethanol in a ratio 90:10 as the mobile phase, at a flow rate of 1 mL/min for 8 min. The compounds were detected at 210 nm (DAD). Retention times of (R)- and (S)-1 were 4.2 min and 4.7 min, respectively.

## CC[C@@H](C(N)=O)N1CCCC1=O [compound 4, (S)-2-(2-oxopyrrolidin-1-yl)butane amide, reference compound]
[1]
  conversion: 51.8%
  e.e. for (S): 92.1%

## CCC(C#N)N1CCCC1 (racemic) [rac-1, 2-(Pyrrolidin-1-yl)butanenitrile]
[2]; pH 5, 2 min
  Percent (HPLC peak area vs zero value): 57%
[2]; pH 5, 1 hour
  Percent (HPLC peak area vs zero value): 32%
[2]; pH 6, 2 min
  Percent (HPLC peak area vs zero value): 54%
[2]; pH 6, 1 hour
  Percent (HPLC peak area vs zero value): 23%
[2]; pH 6.5, 2 min
  Percent (HPLC peak area vs zero value): 47%
[2]; pH 6.5, 1 hour
  Percent (HPLC peak area vs zero value): 22%
[2]; pH 7, 2 min
  Percent (HPLC peak area vs zero value): 57%
[2]; pH 7, 1 hour
  Percent (HPLC peak area vs zero value): 44%
[2]; pH 7.5, 2 min
  Percent (HPLC peak area vs zero value): 66%
[2]; pH 7.5, 1 hour
  Percent (HPLC peak area vs zero value): 50%
[2]; pH 9, 2 min
  Percent (HPLC peak area vs zero value): 83%
[2]; pH 9, 1 hour
  Percent (HPLC peak area vs zero value): 87%
[2]; pH 10, 2 min
  Percent (HPLC peak area vs zero value): 78%
[2]; pH 10, 1 hour
  Percent (HPLC peak area vs zero value): 86%
[1]
  conversion: 29.3%
  e.e. for (S): 92.8%

B1: KoNHase: nitrile hydratase from Klebsiella oxytoca (protein, listed as Klebsiella oxytoca)
alpha: MSHKHDHDHTHPPVDIELRVRALESLLQEKGLIDPAALDELIDTYEHKVGPRNGAQVVARAWSDPEYKRRLMENATAAIAELGFSGIQGEDMLVVENTPDVHNVTVCTLCSCYPWPVLGLPPVWYKSAPYRSRIVIDPRGVLAEFGLHIPENKEIRVWDSSAELRYLVLPERPAGTEGWSEAQLSELITRDSMIGTGVVSAP
beta: MNGIHDLGGMHGLGPIPTEENEPYFHHEWERRVFPLFASLFVGGHFNVDEFRHAIERMAPTEYLQSSYYEHWLHAFETLLLAKGAITVEELWGGAKPAPCKPGTPVLTQEMVSMVVSTGGSARVSHDVAPRFRVGDWVRTKNFNPTTHTRLPRYARDKVGRIEIAHGVFITPDTAAHGLGEHPQHVYSVSFTAQALWGEPRPDKVFIDLWDDYLEEA
1 or 2 mM CoCl2, 2 h, 25° C.
  activity after cobalt pre-incubation: lower activity than the control reaction
NHase-CFE, 114 mM substrate, pH 7.2, 25° C.
  activity towards methacrylonitrile (MAN) hydrolysis: high activity
Incubated at pH 9 or 9.5, 25° C., then MAN assay
  stability after longer incubation at high pH: loses activity with time at pH 9.5
Methacrylonitrile hydration, carbonate buffer pH 10
  activity at high pH: still active at pH 10
pH 8
  thermal stability at 37° C.: seem stable
[1]
  enantioselectivity for (S)-2: 78%
[1]; Table 4: 10 mM rac-1, NHase-CFE, 500 μL, pH 7.2, 25° C.
  conversion [%]: 5.3%
[1]; Table 5: 10 mM rac-1, NHase-CFE, pH 7.2, 37° C.
  conversion [%]: 4.4%
[1]; Table 5: 10 mM rac-1, NHase-CFE, pH 7.2, 50° C.
  conversion [%]: 3.8%
[1]; Table 5: 37° C., —^a: only (S)-amide was detected
  eeP [%]: 83 (S) %
[1]; Table 5: 50° C., —^a: only (S)-amide was detected
  eeP [%]: 78 (S) %
[1]; Table 6: 10 mM substrate, 25° C., pH 7.2
  Conv. [%]: 5.3%
[1]; Table 6: 10 mM substrate
  eeP [%]: 79 (S) %
[1]; Table 6: 50 mM substrate, 25° C., pH 7.2
  Conv. [%]: 6.2%
[1]; Table 6: 50 mM substrate
  eeP [%]: 79 (S) %
[1]; Table 6: 100 mM substrate, 25° C., pH 7.2
  Conv. [%]: 2.6%
[1]; Table 6: 100 mM substrate
  eeP [%]: 75 (S) %
[1]; pH 7.2
  Enantioselectivity eeP [%]: 79 (S) %
[1]; time study: 20 mM substrate, CFE, 25° C., pH 7.2
  enantiomeric excess of the product for (S)-2: 81%
